Results published in patent US20140341931A1.

What was measured:
[1] = target: recombinant sCD27 containing 6x his-Tag at the carboxyl terminus (human) (UniProt P26842); assay: mock depletion on plate coated with control IgG, sCD27 ELISA of the supernatant
[2] = target: High mobility group protein B1 (human) (UniProt P09429); assay: control (background) lane of the PolyHis pull-down, no bait peptides detected, mass spectrometry
[3] = target: Myosin IIA (human) (UniProt P35579); assay: as above
[4] = target: High mobility group protein B1 (human) (UniProt P09429); assay: PolyHis pull-down with sCD27-his as bait from lysate of stimulated PBMCs, SDS-PAGE, mass spectrometry
[5] = target: Myosin IIA (human) (UniProt P35579); assay: as above

Chain of High mobility group protein B1 (human) (P09429 whole entry): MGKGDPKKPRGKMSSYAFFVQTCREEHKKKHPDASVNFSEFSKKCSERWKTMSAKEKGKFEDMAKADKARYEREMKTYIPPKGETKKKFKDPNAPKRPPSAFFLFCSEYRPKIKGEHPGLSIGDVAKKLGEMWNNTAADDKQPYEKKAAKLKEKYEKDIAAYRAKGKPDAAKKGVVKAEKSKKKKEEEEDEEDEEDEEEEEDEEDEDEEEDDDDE
Chain of Myosin IIA (human) (P35579 2-1960 limits assumed): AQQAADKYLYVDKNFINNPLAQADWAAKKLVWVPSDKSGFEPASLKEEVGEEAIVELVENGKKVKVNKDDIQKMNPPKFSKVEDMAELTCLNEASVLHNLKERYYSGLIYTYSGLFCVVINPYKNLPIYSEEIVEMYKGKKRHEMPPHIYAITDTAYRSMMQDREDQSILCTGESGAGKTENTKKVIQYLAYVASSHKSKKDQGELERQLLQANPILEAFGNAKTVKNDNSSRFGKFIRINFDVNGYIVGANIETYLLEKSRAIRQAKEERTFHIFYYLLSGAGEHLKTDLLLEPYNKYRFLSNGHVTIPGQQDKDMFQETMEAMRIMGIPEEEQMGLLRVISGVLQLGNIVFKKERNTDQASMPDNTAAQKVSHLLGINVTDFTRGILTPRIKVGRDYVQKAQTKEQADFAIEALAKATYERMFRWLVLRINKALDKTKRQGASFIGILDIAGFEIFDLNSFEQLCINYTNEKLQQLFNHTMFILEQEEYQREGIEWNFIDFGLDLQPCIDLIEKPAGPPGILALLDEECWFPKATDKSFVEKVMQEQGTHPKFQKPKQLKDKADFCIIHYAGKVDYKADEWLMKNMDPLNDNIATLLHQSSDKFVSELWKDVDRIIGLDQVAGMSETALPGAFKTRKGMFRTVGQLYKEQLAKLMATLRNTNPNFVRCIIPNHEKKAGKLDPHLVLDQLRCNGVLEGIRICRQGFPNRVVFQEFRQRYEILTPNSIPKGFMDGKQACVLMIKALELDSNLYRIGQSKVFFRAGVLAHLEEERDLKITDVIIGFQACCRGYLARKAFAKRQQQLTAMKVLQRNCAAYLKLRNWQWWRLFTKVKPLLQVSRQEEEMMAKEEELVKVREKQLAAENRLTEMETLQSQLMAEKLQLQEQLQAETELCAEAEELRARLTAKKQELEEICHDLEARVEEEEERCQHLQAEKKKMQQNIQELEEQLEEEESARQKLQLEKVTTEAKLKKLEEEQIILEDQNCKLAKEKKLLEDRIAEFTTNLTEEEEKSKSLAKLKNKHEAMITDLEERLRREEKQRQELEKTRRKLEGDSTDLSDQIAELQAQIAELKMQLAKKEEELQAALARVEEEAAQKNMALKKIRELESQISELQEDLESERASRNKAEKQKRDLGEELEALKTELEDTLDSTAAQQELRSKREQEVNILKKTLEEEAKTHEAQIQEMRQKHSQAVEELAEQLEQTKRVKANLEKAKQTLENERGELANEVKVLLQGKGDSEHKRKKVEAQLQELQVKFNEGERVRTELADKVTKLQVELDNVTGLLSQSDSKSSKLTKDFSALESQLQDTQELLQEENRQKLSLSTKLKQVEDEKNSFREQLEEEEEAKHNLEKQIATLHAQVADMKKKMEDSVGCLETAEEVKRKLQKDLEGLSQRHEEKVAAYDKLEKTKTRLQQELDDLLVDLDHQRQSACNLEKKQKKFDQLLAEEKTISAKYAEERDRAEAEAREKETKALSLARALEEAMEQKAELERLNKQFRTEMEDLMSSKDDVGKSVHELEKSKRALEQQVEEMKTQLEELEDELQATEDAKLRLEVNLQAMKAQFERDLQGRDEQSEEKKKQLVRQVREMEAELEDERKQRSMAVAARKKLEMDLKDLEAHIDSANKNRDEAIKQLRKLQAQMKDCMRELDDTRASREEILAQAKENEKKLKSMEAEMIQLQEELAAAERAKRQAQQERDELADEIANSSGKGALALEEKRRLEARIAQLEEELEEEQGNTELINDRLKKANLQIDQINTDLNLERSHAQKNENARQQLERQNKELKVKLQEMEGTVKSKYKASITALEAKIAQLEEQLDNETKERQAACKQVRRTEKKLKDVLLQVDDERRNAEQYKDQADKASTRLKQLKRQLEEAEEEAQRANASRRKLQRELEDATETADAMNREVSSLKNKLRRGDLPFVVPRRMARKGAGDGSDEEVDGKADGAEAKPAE

Row | sCD27 value left after depletion [1] [ng/mL] | TPC (total peptide count) in Lane 4 (background) [2] [peptides] | TPC (total peptide count) in Lane 4 (background) [3] [peptides] | TPC (total peptide count) in Lane 2 (positive) [4] [peptides] | TPC (total peptide count) in Lane 2 (positive) [5] [peptides] | Substance
1 | 1.4 |  |  |  |  | IgG control (R&D Systems Inc.) (antibody)
2 |  | 5 | 14 | 44 | 79 | recombinant sCD27 containing 6x his-Tag at the carboxyl terminus (from UniProt P26842 20-189) (receptor)
